Data reported in patent US20130183378A1 (CEDARS SINAI MEDICAL CENTER, published 2013).

Molecular target: T1, HLA-A*0201 on T2 cells (human)
T1 construct: the class I molecule on T2 cells that the added peptide stabilises; also called HLA-A2; HLA-A2 molecules
Assay: T2 cell HLA-A*0201 stabilisation; 100 µM peptide overnight, Brefeldin A, BB7.2 mAb staining, flow cytometry; MFI minus no-peptide control
Experimental: The cells were then incubated with Brefeldin A (Sigma, St. Louis, Mo.) at 10 μg/ml for 1 hour, washed, incubated at 37° C. for 0, 3, or 6 hours in the presence of Brefeldin A (0.5 μg/ml), and then stained with BB7.2 mAb.

Binder | MFI (0 hour) [MFI] | MFI (3 hour) [MFI] | MFI (6 hour) [MFI]
ILSAFSVYV (Free peptide added to T2 cells) [CD133-405] | 79.7 | 69.3 | 44.5
LLFIILMPLV (Free peptide added to T2 cells; also called peptide 117) [CD133-117] | 5.5 | 7.5 | 1.01
SLNDPLCLV (Free peptide added to T2 cells; also called peptide 301) [CD133-301] | 10.7 | 14.3 | 13.3

The remaining lines, values ahead:

MFI (0 hour) [MFI] | MFI (3 hour) [MFI] | MFI (6 hour) [MFI] | Binder
89 | 67.6 | 34.7 | FLLPALIFAV (Free peptide added to T2 cells; also called peptide 804) [CD133-804]
13.1 | 14.8 | 1.3 | GLLERVTRI (Free peptide added to T2 cells; also called peptide 708) [CD133-708]

Molecular target: T1, HLA-A*0201 on T2 cells
Assay: T2 cells incubated overnight with 0, 10 or 100 µM peptide, Brefeldin A, BB7.2 mAb staining, flow cytometry; fluorescence increased in a dose-dependent manner
Experimental: T2 cells were incubated overnight with 0 μM, 10 μM, or 100 μM of SEQ ID NO:11. The cells were then incubated with Brefeldin A (Sigma, St. Louis, Mo.) at 10 μg/ml for 1 hour, washed, incubated at 37° C. in the presence of Brefeldin A (0.5 μg/ml), and then stained with BB7.2 mAb. Fluorescence intensity was measured by flow cytometry.

binding result | Binder
binds | MLLQVSHYL (Free peptide added to T2 cells at 0, 10 or 100 µM; also called mouse peptide) [mouse counterpart of SEQ ID NO:1, MLLQVSHYL (SEQ ID NO:11)]
